Substrate: COc1ccccc1O
Test: purified protein
Assay type: biochemical, Sorghum bicolor
Settings: heme; Ca2+ raises activity

B1: SK 5912 sorghum peroxidase (cationic class III peroxidase) (Sorghum bicolor) (protein)
chain: ARQPPLAPGLSFDFYKRSCPKAESIVRSFVQDAVRRDVGLAAGLLRLHFHDCFVQGCDASVLLDGSATGPGEQQAPPNLTLRPTAFKAINDIHDRLHKECGGTVVSCSDVLALAARDSVVVSGGPSYKVPLGRRDSASFATQQDVLSGLPPPTAAVPALLAVLSKINLDATDLVALSGGHTIGLGHCTSFEDRLFPRPDPTLNATFAGQLRRTCPAKGTDRRTPLDVRTPNAFDNKYYVNLVNREGLFTSDQDLFSNARTRALVDKFARSQRDFFDQFAFSVVKMGQIKVLTGTQGQIRTNCSARNAAGTTMLPWSVSVVEEAADESLGVF
notes: native enzyme isolated from grain
For B1, the Km was 1600 ± 400 µM.

From paper PMC4771821, “Structural and spectroscopic characterisation of a heme peroxidase from sorghum” (Journal of Biological Inorganic Chemistry, 2015)
